T1: human six-transmembrane epithelial antigen of prostate 2 (STEAP2) (human, UniProt Q8NFT2 1-490)
T1 sequence: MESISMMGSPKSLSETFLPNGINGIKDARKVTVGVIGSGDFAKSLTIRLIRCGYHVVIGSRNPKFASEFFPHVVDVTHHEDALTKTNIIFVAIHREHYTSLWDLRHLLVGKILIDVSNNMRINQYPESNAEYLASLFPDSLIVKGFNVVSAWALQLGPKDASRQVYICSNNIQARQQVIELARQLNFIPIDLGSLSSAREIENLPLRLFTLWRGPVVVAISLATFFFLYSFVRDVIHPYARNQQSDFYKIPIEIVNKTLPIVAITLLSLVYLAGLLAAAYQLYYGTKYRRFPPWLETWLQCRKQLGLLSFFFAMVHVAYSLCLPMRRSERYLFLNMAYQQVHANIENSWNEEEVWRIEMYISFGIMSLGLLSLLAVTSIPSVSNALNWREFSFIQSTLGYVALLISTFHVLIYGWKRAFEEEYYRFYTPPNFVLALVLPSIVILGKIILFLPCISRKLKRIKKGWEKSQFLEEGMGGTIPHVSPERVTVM

B1: BSSTEAP2/CD3-005 (bispecific antibody, IgG4, V domains shown)
VH 1: QVQLQQSGPGLVKPSQTLSLTCAISGDSVSSNRAAWNWIRQSPSRGLQWLGRTYYRSKWYNDYAVSLRSRITINPVTSKNQVALHMNSVTPEDTAVYYCARAGIVVVPGPETFYYYDHGLDVWGQGTTVTVSS
VH 2: QVQLVESGGGLVHPGRSLRLSCAASGFKFDDYTMHWVRQAPGKGLEWVSDISWNSGSKGYADSVKGRFTISRDNAKDSLYLQMDSLRAADTAFYYCAKDKSGYGHFYYYAMDVWGQGTTVTVSS
VL: DIQMTQSPSSLSASVGDRVTITCRASQSIRSYLNWYQQKPGKAPELLIHAASSLQSGVPSRFSGSGSGTDFTLTISSLQPEDFASYYCQQSYSAPPITFGQGTRLEIK
B2: BSSTEAP2/CD3-001 (bispecific antibody, IgG4, V domains shown)
VH 1: QVQLQQSGPGLVKPSQTLSLTCAISGDSVSSNRAAWNWIRQSPSRGLQWLGRTYYRSKWYNDYAVSLRSRITINPVTSKNQVALHMNSVTPEDTAVYYCARAGIVVVPGPETFYYYDHGLDVWGQGTTVTVSS
VH 2: EVQLVESGGGLVQPGRSLRLSCAASGFTFDDYSMHWVRQAPGKGLEWVSGISWNSGSKGYADSVKGRFTISRDNAKNSLYLQMNSLRAEDTALYYCAKYGSGYGKFYHYGLDVWGQGTTVTVSS
VL: DIQMTQSPSSLSASVGDRVTITCRASQSIRSYLNWYQQKPGKAPELLIHAASSLQSGVPSRFSGSGSGTDFTLTISSLQPEDFASYYCQQSYSAPPITFGQGTRLEIK
B3: BSSTEAP2/CD3-009 (bispecific antibody, IgG4, V domains shown)
VH 1: QVQLQQSGPGLVKPSQTLSLTCVISGDSVSTNSAAWNWIRQSPSRGLEWLGRTYYRSKWYNDYAVSVRSRITINPVTSKNQVALHLNSVTPEDTAVYYCARAGIVVVPGPETYYYYYHGLDVWGQGTTVTVSS
VH 2: QVQLVESGGGLVHPGRSLRLSCAASGFKFDDYTMHWVRQAPGKGLEWVSDISWNSGSKGYADSVKGRFTISRDNAKDSLYLQMDSLRAADTAFYYCAKDKSGYGHFYYYAMDVWGQGTTVTVSS
VL: DIQMTQSPSSLSASVGDRVTITCRASQNIRSYLNWYQQKPGKAPKLLIHVASSLQSGVPSRFSGSGSGTDFTLTISSLQPEDFATYYCQQSYSTPPITFGHGTRLEIK
B4: H2M11164N (antibody, mouse IgG2, V domains shown)
VH: QVQLQQSGPGLVKPSQTLSLTCVISGDSVSTNSAAWNWIRQSPSRGLEWLGRTYYRSKWYNDYAVSVRSRITINPVTSKNQVALHLNSVTPEDTAVYYCARAGIVVVPGPETYYYYYHGLDVWGQGTTVTVSS
VL: DIQMTQSPSSLSASVGDRVTITCRASQNIRSYLNWYQQKPGKAPKLLIHVASSLQSGVPSRFSGSGSGTDFTLTISSLQPEDFATYYCQQSYSTPPITFGHGTRLEIK
B5: BSSTEAP2/CD3-008 (bispecific antibody, IgG4, V domains shown)
VH 1: QVQLQQSGPGLVKPSQALSLTCAISGDSVSSNSAAWNWIRQSPSRGLEWLGRTYYRSKWYNDYAVSVKSRITINPDTSKNHFSLHLNSMTPEDTAVYYCARARIVVVPGPEVYYYYYYDMDVWGQGTTVTVSS
VH 2: QVQLVESGGGLVHPGRSLRLSCAASGFKFDDYTMHWVRQAPGKGLEWVSDISWNSGSKGYADSVKGRFTISRDNAKDSLYLQMDSLRAADTAFYYCAKDKSGYGHFYYYAMDVWGQGTTVTVSS
VL: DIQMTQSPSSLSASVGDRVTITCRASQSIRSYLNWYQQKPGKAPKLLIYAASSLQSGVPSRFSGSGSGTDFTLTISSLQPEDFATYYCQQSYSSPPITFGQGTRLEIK
B6: H2M11162N (antibody, mouse IgG2, V domains shown)
VH: QVQLQQSGPGLVKPSQTLSLTCAISGDSVSSNRAAWNWIRQSPSRGLQWLGRTYYRSKWYNDYAVSLRSRITINPVTSKNQVALHMNSVTPEDTAVYYCARAGIVVVPGPETFYYYDHGLDVWGQGTTVTVSS
VL: DIQMTQSPSSLSASVGDRVTITCRASQSIRSYLNWYQQKPGKAPELLIHAASSLQSGVPSRFSGSGSGTDFTLTISSLQPEDFASYYCQQSYSAPPITFGQGTRLEIK
B7: BSSTEAP2/CD3-007 (bispecific antibody, V domains shown)
VH 1: QVQLQQSGPGLVKPSQTLSLTCAISGDSVSSNRAAWNWIRQSPSRGLQWLGRTYYRSKWYNDYAVSLRSRITINPVTSKNQVALHMNSVTPEDTAVYYCARAGIVVVPGPETFYYYDHGLDVWGQGTTVTVSS
VH 2: EVQLVESGGGLVQPGRSLRLSCAASGFTFADYTMHWVRQAPGKGLEWVSDISWNSGSIAYADSVKGRFTISRDNAKNSLYLQMNSLRTEDTAFYYCAKDSRGYGHYKYLGLDVWGQGTTVTVSS
VL: DIQMTQSPSSLSASVGDRVTITCRASQSIRSYLNWYQQKPGKAPELLIHAASSLQSGVPSRFSGSGSGTDFTLTISSLQPEDFASYYCQQSYSAPPITFGQGTRLEIK
B8: BSSTEAP2/CD3-006 (bispecific antibody, V domains shown)
VH 1: QVQLQQSGPGLVKPSQTLSLTCAISGDSVSSNRAAWNWIRQSPSRGLQWLGRTYYRSKWYNDYAVSLRSRITINPVTSKNQVALHMNSVTPEDTAVYYCARAGIVVVPGPETFYYYDHGLDVWGQGTTVTVSS
VH 2: EVQLVESGGGLVQPGRSLRLSCVASGFTFDDYSMHWVRQAPGKGLEWVSGISWNSGSKDYADSVKGRFTISRDNAKNSLYLQMNSLRAEDTALYYCAKYGSGYGKFYHYGLDVWGQGTTVTVSS
VL: DIQMTQSPSSLSASVGDRVTITCRASQSIRSYLNWYQQKPGKAPELLIHAASSLQSGVPSRFSGSGSGTDFTLTISSLQPEDFASYYCQQSYSAPPITFGQGTRLEIK
B9: BSSTEAP2/CD3-011 (bispecific antibody, V domains shown)
VH 1: QVQLVESGGGVVQPGRSLGLSCAASGFTFSSYGMHWVRQAPGKGLEWVAVIWYDGSNKYYVDSVKGRFTISRDNSKNTLYLQMNSLRAEDTAVYYCAREGLRFLENYYYYYGMDVWGQGTTVTVSS
VH 2: EVQLVQSGGGLVQPGRSLRLSCAASGFTFADYTMHWVRQTPGKGLEWVSGISWNSGSKDYADSVKGRFTISRDNAKNSLYLQMNSLRTEDTALYYCAKYGSGYGRYFFYAMDVWGQGTTVTVSS
VL: EIVLTQSPGTLSLSPGERATLSCRASQSISSTYLAWYQQRPGQAPRLLIYGASSRATGIPDRFSGSGSGTDFTLTISRLEPEDFAVYYCQQYGTSPYTFGQGTKLEIK
notes: also called BSSTEAP2/CD3-0011
B10: BSSTEAP2/CD3-004 (bispecific antibody, IgG4, V domains shown)
VH 1: QVQLVESGGGVVQPGRSLRLSCVASGFTISSYGMNWVRQAPGKGLEWVAVISYDGGNKYSVDSVKGRFTISRDNSKNTLYLQMNSLRAEDSAVYYCARGRYFDLWGRGTLVTVSS
VH 2: EVQLVESGGGLVQPGRSLRLSCAASGFTFADYTMHWVRQGPGTGLEWVSDIGWSGGSLGYADSVKGRFTISRDNAKNSLYLEMNNLRPEDTALYYCVKDKSGYGKFQYGLDVWGQGTTVTVSS
VL: DIQMTQSPSTLSASVGDRVTITCRASQSISSWLAWYQQKPGRAPNLLISKASSLKSGVPSRFSGSGSGTEFTLTVSSLQPDDFATYYCQQYYSYSYTFGQGTKLEIK
B11: H1M11243N (antibody, mouse IgG1, V domains shown)
VH: QVQLQQSGPGLVKPSQTLSLTCAISGDSVSSNSAAWNWIRQSPSRGLEWLGRTYYRSKWYNDYAVSVKSRITINPDTSKNQFSLHLNSVTPEDTAVYYCARAGIVVVPGPDIYYYYYYGMDVWGQGTTVTVSS
VL: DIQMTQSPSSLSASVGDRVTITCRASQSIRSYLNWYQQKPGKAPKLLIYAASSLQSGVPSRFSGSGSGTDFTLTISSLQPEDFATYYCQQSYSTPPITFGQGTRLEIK
B12: H2M11163N (antibody, mouse IgG2, V domains shown)
VH: QVQLQQSGPGLVKPSQALSLTCAISGDSVSSNSAAWNWIRQSPSRGLEWLGRTYYRSKWYNDYAVSVKSRITINPDTSKNHFSLHLNSMTPEDTAVYYCARARIVVVPGPEVYYYYYYDMDVWGQGTTVTVSS
VL: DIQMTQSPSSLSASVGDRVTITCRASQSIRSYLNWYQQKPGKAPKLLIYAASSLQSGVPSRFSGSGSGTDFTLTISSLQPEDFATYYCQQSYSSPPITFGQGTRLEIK

Tests used:
human CD3 [1] = biological target: T2, human CD3 (human, UniProt P07766 23-207; P04234 22-171); assay: FACS titration on Jurkat cells (human CD3)
T2 construct: As expressed on Jurkat cells or human T cells within the T cell receptor complex; also called hCD3
T2 sequence (P07766 23-207 limits assumed, chain 1 of 2): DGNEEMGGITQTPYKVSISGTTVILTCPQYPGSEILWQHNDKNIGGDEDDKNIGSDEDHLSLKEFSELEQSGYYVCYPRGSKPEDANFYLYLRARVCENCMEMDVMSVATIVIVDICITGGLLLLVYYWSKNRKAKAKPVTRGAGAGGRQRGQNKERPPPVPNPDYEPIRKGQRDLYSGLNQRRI
T2 sequence (P04234 22-171 limits assumed, chain 2 of 2): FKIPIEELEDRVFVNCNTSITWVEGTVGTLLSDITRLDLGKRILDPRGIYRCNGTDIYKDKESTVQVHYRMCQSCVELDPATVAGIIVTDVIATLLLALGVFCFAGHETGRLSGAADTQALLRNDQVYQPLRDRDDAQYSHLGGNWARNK
Method: (§1) Flow cytometric analysis was utilized to determine binding of STEAP2×CD3 bispecific antibodies to Jurkat, PC3_STEAP2/1 chimeric and cynomolgus T cells, followed by detection with a phycoerythrin (PE)-labeled anti-human IgG antibody. […] After incubation, the cells were washed twice with cold PBS containing 1% filtered FBS and a PE-conjugated anti-human secondary antibody was added to the cells and incubated for an additional 30 minutes. Wells containing no antibody or secondary antibody only were used as a control. After incubation, cells were washed, re-suspended in 200 μL cold PBS containing 1% filtered FBS and analyzed by flow cytometry on a BD FACS Canto II.

[2] = biological target: T1, human six-transmembrane epithelial …; assay: cell-based or functional assay
[3] = biological target: T3, STEAP2/1 chimeric construct; assay: FACS titration on PC3 cells expressing the STEAP2/1 chimera
T3 construct: Expressed on engineered PC3 human prostate cancer cells; also called PC3_STEAP2/1
Method: as §1

human CD3 [4] = biological target: T2, human CD3; assay: cell-based or functional assay
human CD3 [5] = biological target: T2, human CD3; assay: cell-based or functional assay; remark: listed apart in the source
[6] = biological target: T1, human six-transmembrane epithelial …; assay: FACS on C4-2 cells (endogenous STEAP2), MFI fold above unstained, average at 100-300 nM antibody
Method: (§2) Briefly, 1×10⁵ cells were incubated with 10 μg/ml of anti STEAP2 antibodies, or isotype control antibodies for 30 min on ice in antibody dilution buffer. Following one wash with antibody dilution buffer, cells were incubated with 10 μg/ml of PE conjugated anti-human or antimouse Fc secondary antibodies for 30 min on ice. Following one additional wash, samples were incubated with Cytofix (1% formaldehyde) for 20 minutes. After one final wash, samples were filtered through a Pall 96 well filtration block, run on a Hypercyt® cytometer and analyzed in ForeCyt™ (IntelliCyt, Albuquerque, N. Mex.). Mean fluorescence intensities (MFI) were expressed as fold change above unstained levels (background). The average fold above background at antibody concentrations of 100-300 nM were determined.

[7] = biological target: T1, human six-transmembrane epithelial …; assay: FACS titration on C4-2 cells (endogenous STEAP2), 4-parameter fit
Method: as §2

Row | Binder | EC50 (human CD3 [1]) | C4-2 cells depletion EC50 [2] | EC50 [3] | hPBMC Proliferation [M] (EC50, with anti-CD28) (human CD3 [4]) | T cells activation EC50 [M] (CD69+ of CD2+ T cells) (human CD3 [5]) | Avg F.A.B (fold above background) [6] | EC50 [7]
1 | B1 | 14.1 nM | 0.00729 nM | 31.8 nM | 2.76e-12 M | – | – | –
2 | B2 | 7.19 nM | 0.00468 nM | 3.44 nM | 1.6e-10 M | 1.61e-12 M | – | –
3 | B3 | 4.14 nM | 0.00273 nM | 42.1 nM | 3.68e-13 M | – | – | –
4 | B4 | – | – | – | – | – | 360 fold above background | 3.7 nM
5 | B5 | 1.52 nM | 0.00411 nM | 68.8 nM | 7.76e-12 M | – | – | –
6 | B6 | – | – | – | – | – | 365 fold above background | 4.9 nM
7 | B7 | 0.615 nM | 0.00811 nM | 5.37 nM | 8.26e-11 M | – | – | –
8 | B8 | 3.98 nM | 0.00393 nM | 12.2 nM | 8.14e-13 M | – | – | –
9 | B9 | 8.63 nM | – | – | 8.62e-12 M | – | – | –
10 | B10 | 0.688 nM | 0.00311 nM | 79.1 nM | 7.1e-13 M | 9.4e-13 M | – | –
11 | B11 | – | – | – | – | – | 116 fold above background | 23 nM
12 | B12 | – | – | – | – | – | 256 fold above background | 13 nM
